# In the DeepSol protein solubility set:
# Assay: soluble on expression in E. coli; label from the status in PepcDB or PDB records
row,Sequence,soluble on expression in E. coli
1,MMTDLSTPDLPRMSAAIAEPTSHDPDSGGHFGGPSGWGGRYVPEALMAVIEEVTAAYQKERVSQDFLDDLDRLQANYAGRPSPLYEATRLSQHAGSARIFLKREDLNHTGSHKINNVLGQALLARRMGKTRVIAETGAGQHGVATATACALLGLDCVIYMGGIDTARQALNVARMRLLGAEVVAVQTGSKTLKDAINEAFRDWVANADNTYYCFGTAAGPHPFPTMVRDFQRIIGMEARVQIQGQAGRLPDAVVACVGGGSNAIGIFHAFLDDPGVRLVGFEAAGDGVETGRHAATFTAGSPGAFHGSFSYLLQDEDGQTIESHSISAGLDYPGVGPEHAWLKEAGRVDYRPITDSEAMDAFGLLCRMEGIIPAIESAHAVAGALKLGVELGRGAVIVVNLSGRGDKDVETAAKWFGLLGND,soluble
2,MAHHHHHHMASMNHPDELEGSATSGVLCPLTAYEEVPPTKTRSQIIKEQLLDLENYSFEIPDRPEGDPSGKLAYLDMCEQLHKESFMKFPTHSVANSLCEGKESLDVSFFALGKKGSAALAAALRVNLTIRKLSLLRNHITPSGAMEIARALSETKVVSDLDLSENLLGLTDADDIQGGAVVAEFLKPGNVLKTLSLRDNKLSDQHVTEFAEAAIDNTELHSLDLSFNRIGYIGAIELANILSKNADLQEINLEWNQFQTIGSRHILAEGLLLNNTIKRFNMSWNGLDDACGVLVGRIISENDIEEIVVAHNRIGPAGAEAIAKGLLNTSALTTLILDDNPMQNEGCAAILRVVGEAATLTNVSLQQCRCDSSVVLEADRVMKEVRPDLDIRISEGCCAKVVM,not soluble
3,MTSFDAIVIGGGHNGLVAAATLAKAGRKVLVLEAESEVGGAARTEEFAPGFRVSSIAHLLNRLHPDVVKTLELETHGLQFARADFLPSAALSKDGPALMLHGAYGEVLTGASPSEQSAWKDLRAQLLRYAGILKPFLTRRPPDLAGMSLMETASLGQTALALKKLGKEDMRDFLRVLLMNVADLLDEQLRDDRLKGLLAFDATLGSHLGPRSPTSLLGLYYRLAGEAGGAAGAQVLPQGGMGAVVAAIRAAAEKAGVTIRTSVAAAKIIVEKGHAVGVTLGTGEELRARTVVSAINPATTFLDLVGPREIDTGFVRKVKNIRMKGDAAKLHLALDRSPQFTGADAAAHKGRLVIAPSPDHVERAFNPCKYGEFSPEPVLEITLPSLADPSLAPDGACVLSAVVQYAPYALKEGWAAGKPKFIKAVMAQLEAYAPGIGKSVVHAELLTPADIETRYRMPGGHWHHGELQADQMLISRPVSGWSGYDTPVEGLFLAGAGSHPGGGVSGAPGLNAARRIIAMKGLEHHHHHH,soluble
4,MSSYKNILVAIDGSYESELAFEKGVSVALRNDANLLLTHVVDTRALQSVATFDAYIYEKLEQEAHSVLDDYENQARERGLEKVRQIIEFGNPKPLLATEIPEREHVDLIMLGATGLNAFERLLIGSSSEYILRHAKVDLLVVRDPEKTL,not soluble
5,SNAMHNHNNRLVITPGEPAGVGPDLAITLAQQDWPVELVVCADPALLLARASQLNLPLQLREYQADQPAIAQQAGSLTILPVKTAVNVVPGKLDVGNSHYVVETLAKACDGAISGEFAALVTGPVQKSIINDAGIPFIGHTEFFADRSHCQRVVMMLATEELRVALATTHLPLLAVPGAITQASLHEVITILDNDLKTKFGITQPQIYVCGLNPHAGEGGHMGHEEIDTIIPALNTLRQQGINLIGPLPADTLFQPKYLQHADAVLAMYHDQGLPVLKYQGFGRAVNITLGLPFIRTSVDHGTALELAATGTADVGSFITALNLAIKMINNSNE,soluble
6,DSGYSRETRALLFRAYRHDPTFAYLFNAEREGYEQRVLATIRQLVKQHFLQNQPALGLFLEDRLVGVALIAPPLRRLGVTESWAWRLRMVMDTGLGCTQRYLAYYNAVLACLPSETVHVLPLIGLDPEFQGQKMGQDLSEQLLAALHDWCAVDENSQGIVVDTGNPRYLEFYKRQGYEEIGEIAVGPV,not soluble
7,MGSDKIHHHHHHMKGISHRIAIPLILEVGNNKIYNIGQIIKKGNFKRVSLYFGEGIYELFGETIEKSIKSSNIEIEAVETVKNIDFDEIGTNAFKIPAEVDALIGIGGGKAIDAVKYMAFLRKLPFISVPTSTSNDGFSSPVASLLINGKRTSVPAKTPDGIVVDIDVIKGSPEKFIYSGIGDLVSNITALYDWKFEEENHKSIIDDFAVMISKKSVNSFVRTDFKSIKDEVFLKELVDSLTMNGIAMEIAGNSSPASGAEHLISHALDKFLPNPQLHGIQVGVATYIMSKVHKHREERIKKILSDTGFFNYVKGLNMKKSDFKRAISEAHLIKPARYTYLHVEKNCETAKEIVDTDEILRNILV,not soluble
8,MSKVALIRCESYDYDAVKSAVKRGLDLIGGPHRFAAPNEKILLKPNLLSADPPERCSTTHPSVFKAVAEIFMEAGITNLSYGDSPGIHKPITAARKNGIEKAANELGIKLADFLEGKEVFFENAIQNKKFIIANGVLESDGIISLPKLKTHGFARMTGCVKNQFGCIPGPLKGEFHVRIPSIIDFSKMLVDLNVYLKPRLFVMDGIIAMEGNGPRGGTPRKINAILLSEDPIALDATVCRMINLNPEFVPTIVFGKEAGLGTYDENEIEILGDDIQSFITYDFDVRREPVKPFKPGGAIQFFRNFIVPKPYILKNKCIKCGVCVNACPVKPKAVDWHNGNKKEPPTYIYKRCIRCYCCQELCPESAIHLKVPFIRKFFYNPK,not soluble
9,GSMAGSVGAAAPVTAANGDDSESETSESDDDSPPRPAAVAVHKREEDEEEDDEFEEVADDPIVMVAGRPFSYSEVSQRPELVAQMTPEEKEAYIAMGQRMFEDLFE,soluble
10,MLDLFADAEPWQEPLAAGAVILRRFAFNAAEQLIRDINDVASQSPFRQMVTPGGYTMSVAMTNCGHLGWTTHRQGYLYSPIDPQTNKPWPAMPQSFHNLCQRAATAAGYPDFQPDACLINRYAPGAKLSLHQDKDEPDLRAPIVSVSLGLPAIFQFGGLKRNDPLKRLLLEHGDVVVWGGESRLFYHGIQPLKAGFHPLTIDCRYNLTFRQAGKKENLYFQNLYFQ,soluble
11,MGSDKIHHHHHHMDFKQVQQSFIDYIRDPQRPVPVGVPLARMQVYRELFFNNVMGFVSNGFPVLKSLYTDEQWQTLVQAFFGQHDCKSPVFIDIAGEFLDFLQFQYSPMDSDPPFMLELAHYEWLELRVATAQQDDRQELIGKEDITYRNLCLAATASVAQYQYPVQQIRPDYRPSEPLVNPVYFCLYQDEVGEVGFLQLTPLSAQVLGYLTEKGQGTFDELTQWLAATYPQMPTETLTQGCLALLEQLATKSIVRGV,not soluble
12,MATAADSVYSIESPKAAKSLMLDVVHAGKRLVAVGDRGHILYSDDQGQTWVQAKVPTRQLLTAVYFVDDKRGWAVGHDAQVLASSDGGATWTRQFQDLKREAPLLDVWFKDTQTGYAVGAYGALLETSDGGQHWEDVSDRLDNEDQFHLNAIAQVKDSGLFIVGEQGSMFRSADDGQTWERLEGPYEGSLFGVIGTGQPATLLVYGLRGNLYRSTDFGSTWEQVELNAARGALEFGLSGATLLDDGSLVIVGNGGSVIRSTDHGQTFSVFNRADRISLSAVTAAGNGDLILAGQGGVRVSAATGAELGQLEHHHHHH,not soluble
13,HHHHHHGSMTIKPLRKAVFPVAGLGTRFLPATKAMPKEMLPVVDRPLIQYAVDEAVEAGIEQMIFVTGRGKSALEDHFDIAYELEATMAARGKSLDVLDGTRLKPGNIAYVRQQEPMGLGHAVWCARDIVGDEPFAVLLPDDFMFGQPGCLKQMVDAYNKVGGNLICAEEVPDDQTHRYGIITPGTQDGVLTEVKGLVEKPAPGTAPSNLSVIGRYILQPEVMRILENQGKGAGGEIQLTDAMQRMIGDQPFHGVTFQGTRYDCGDKAGFIQANLAVALSRPDLEPAVRAFAVKALG,soluble
14,MQLDRVDRKILNELYNDSRLSMRELAKRVNLSAPSTSERVRKLESEGVIQKYTIDIDYKKAGLVLDCILEITLKNGDTTRMQQFIQSYPSASFCYRVTGSLCYIVKISVPSLVELEEFINDVSSYATTVSHIVLSEVSLTPDIEHIFPED,not soluble
